The target of one test is T1, purified human TRAP1 (human, UniProt Q12931 60-704).
T1 sequence: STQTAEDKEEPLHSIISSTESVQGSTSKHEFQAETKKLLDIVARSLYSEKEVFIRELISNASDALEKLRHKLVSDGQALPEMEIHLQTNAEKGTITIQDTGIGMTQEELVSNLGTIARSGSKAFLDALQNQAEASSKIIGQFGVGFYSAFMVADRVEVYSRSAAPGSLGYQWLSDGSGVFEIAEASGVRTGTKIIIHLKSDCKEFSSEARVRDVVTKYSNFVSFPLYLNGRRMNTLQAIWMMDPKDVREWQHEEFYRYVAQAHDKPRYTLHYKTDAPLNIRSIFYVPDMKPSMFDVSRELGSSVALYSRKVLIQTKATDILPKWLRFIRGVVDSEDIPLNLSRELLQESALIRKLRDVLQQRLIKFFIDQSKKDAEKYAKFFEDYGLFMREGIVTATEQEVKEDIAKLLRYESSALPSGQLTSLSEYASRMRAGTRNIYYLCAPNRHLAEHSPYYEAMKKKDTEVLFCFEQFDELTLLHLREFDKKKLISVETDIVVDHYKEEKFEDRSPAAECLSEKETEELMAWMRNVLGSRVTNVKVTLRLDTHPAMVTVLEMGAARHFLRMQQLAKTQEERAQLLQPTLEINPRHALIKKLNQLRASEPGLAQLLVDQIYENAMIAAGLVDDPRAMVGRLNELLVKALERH
The experiment in a line: far-Western, overlay or dot blot.

In test [1] the target is T2, recombinant mature human OSCP (human, UniProt P48047 24-213).
T2 sequence: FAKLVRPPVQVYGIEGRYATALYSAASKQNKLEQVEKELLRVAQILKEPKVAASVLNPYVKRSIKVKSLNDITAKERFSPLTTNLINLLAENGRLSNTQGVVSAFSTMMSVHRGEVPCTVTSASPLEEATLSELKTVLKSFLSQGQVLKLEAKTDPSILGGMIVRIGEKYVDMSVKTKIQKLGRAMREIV
In words: SPR.

These results are taken from doi:10.1101/2021.12.06.471412 (bioRxiv, 2021).

B1: F-ATP synthase subunit b (bovine heart) (natural protein)
chain: PVPPLPEHGGKVRFGLIPEEFFQFLYPKTGVTGPYVLGTGLILYLLSKEIYVITPETFSAISTIGFLVYIVKKYGASVGEFADKLNEQKIAQLEEVKQASIKQIQDAIDMEKSQQALVQKRHYLFDVQRNNIAMALEVTYRERLHRVYREVKNRLDYHISVQNMMRQKEQEHMINWVEKRVVQSISAQQEKETIAKCIADLKLLSKKAQAQPVM
With B1, in the test with purified human TRAP1, the binding result is recorded as “binds”.

B2: F-ATP synthase subunit g (bovine heart) (natural protein)
chain: MAEFVRNLAEKAPALVNAAVTYSKPRLATFWYYAKVELVPPTPAEIPTAIQSLKKIINSAKTGSFKQLTVKEALLNGLVATEVWMWFYVGEIIGKRGIIGYDV
For the molecule B2, the binding result with purified human TRAP1 is recorded as “binds”.

B3: F-ATP synthase subunit OSCP (bovine heart) (natural protein)
chain: FAKLVRPPVQIYGIEGRYATALYSAASKQNKLEQVEKELLRVGQILKEPKMAASLLNPYVKRSVKVKSLSDMTAKEKFSPLTSNLINLLAENGRLTNTPAVISAFSTMMSVHRGEVPCTVTTASALDEATLTELKTVLKSFLSKGQVLKLEVKIDPSIMGGMIVRIGEKYVDMSAKTKIQKLSRAMREIL
In the case of B3, the binding result in the test with purified human TRAP1 is recorded as “binds”.

B4: F-ATP synthase subunit α (bovine heart) (natural protein)
chain: QKTGTAEVSSILEERILGADTSVDLEETGRVLSIGDGIARVHGLRNVQAEEMVEFSSGLKGMSLNLEPDNVGVVVFGNDKLIKEGDIVKRTGAIVDVPVGEELLGRVVDALGNAIDGKGPIGSKARRRVGLKAPGIIPRISVREPMQTGIKAVDSLVPIGRGQRELIIGDRQTGKTSIAIDTIINQKRFNDGTDEKKKLYCIYVAIGQKRSTVAQLVKRLTDADAMKYTIVVSATASDAAPLQYLAPYSGCSMGEYFRDNGKHALIIYDDLSKQAVAYRQMSLLLRRPPGREAYPGDVFYLHSRLLERAAKMNDAFGGGSLTALPVIETQAGDVSAYIPTNVISITDGQIFLETELFYKGIRPAINVGLSVSRVGSAAQTRAMKQVAGTMKLELAQYREVAAFAQFGSDLDAATQQLLSRGVRLTELLKQGQYSPMAIEEQVAVIYAGVRGYLDKLEPSKITKFENAFLSHVISQHQALLSKIRTDGKISEESDAKLKEIVTNFLAGFEA
Consider B4, for which the binding result with purified human TRAP1 is given as “binds”.

B5: recombinant mature human CyPD (natural protein)
chain: not shown
Regarding B5, in test [1], the binding result is reported as “binds”.
